Paper PMC10497828 (2023)

What was measured:
[1] = target: amyloid beta monomer (Homo sapiens, UniProt P05067); assay: saturation binding/Scatchard
[2] = target: amyloid beta oligomers (Homo sapiens, UniProt P05067); assay: saturation binding/Scatchard
Chain of amyloid beta oligomers (P05067 672-713): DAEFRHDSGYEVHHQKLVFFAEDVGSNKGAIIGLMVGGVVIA

Chain of amyloid beta monomer (P05067 672-713): as above

B1: BP (VEGF-derived peptide) (protein)
chain: MTDRQTDTAPSPSYHLLPGRRRTVDAAASRGQGPEPAPGGGVEGVGARGVALKLFVQLLGCSRFGGAVVRAGEAEPSGAARSASSGREEPQPEEGEEEEEKEEERGPQWRLGARKPGSWTGEAAVCADSAPAARAPQALARASGRGGRVARRGAEESGPPHSPSRRGSASRAGPGRASETMNFLLSWVHWSLALLLYLHHAKWSQAAPMAEGGGQNHHEVVKFMDVYQRSYCHPIETLVDIFQEYPDEIEYIFKPSCVPLMRCGGCCNDEGLECVPTEESNITMQIMRIKPHQGQHIGEMSFLQHNKCECRPKKDRARQEKKSVRGKGKGQKRKRKKSRYKSWSVPCGPCSERRKHLFVQDPQTCKCSCKNTDSRCKARQLELNERTCRCDKPRR
Kd [1]: 19 µM
Kd [2]: 0.012 µM
